This is an account of results in article doi:10.1101/2021.08.16.456468.

The target of this test is DnaD^7A, purified (B. subtilis) (UniProt P39787). Kind of test: SEC.

As usually defined, the stoichiometry N is the number of molecules, sites or subunits per partner or assembly. “DnaD^7A, purified (from UniProt P39787 1-232) (natural protein)” had a stoichiometry N of 4.
